Source: the nanobody polyreactivity screen of Harvey et al. (2022)

Experiment: yeast display, Sf9 membrane polyspecificity reagent, FACS + sequencing; frameworks hold sequencing errors
Outline: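 Nanobodies came from a synthetic yeast display library in Saccharomyces cerevisiae BJ5465, induced with galactose for 36–48 hours and stained for 1 hour at 4 °C with 10% biotinylated, detergent-solubilized Sf9 membrane reagent. Cells were enriched on streptavidin microbeads and then FACS-sorted, with low and high (top ~1%) gates set on anti-HA fluorescence for expression and streptavidin fluorescence for reagent binding. Each polyreactivity label reflects the gate a clone came from. Genes were amplified by colony PCR, sequenced by MiSeq 2 × 250 and filtered by CDR length.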

Row | Sequence | polyreactivity (PSR sort gate)
1 | QVQLVESGGGLVQAGGSLRLSCAASGFTFAPNAMGWYRQAPGKEMELVAAISSASSTYYADSVKGRFTISRDNAKNTVYLQMNSLKPEDTAVYYCAARVFKKYRPSGRYYYWGQGSQVTVSS | high polyreactivity
2 | QVQLVESGGGLVQAGGSLRLSCAASGSTFSYNAMGWYRQAPGKERELVATISNTDSTNYADSVKGRFTISRDNAKNTVYLQMNSLKPEVTAVYYCAVVSARIDYEYWGQGTQVTVSS | low polyreactivity
3 | QVQLVESGGGLVQAGGSLRLSCAASGRILVTYAMGWYRQAPGKERELVAAITRGTNTNYADSVKGRFTISRDNAKNTVYLQMNSLKPEDTAVYYCAARRYRYRYGYGGDYWGQGTQVTVSS | high polyreactivity
4 | QVQLVESGGGLVQAGGSLRLICAASGSIFYFYAMGWYREAPGKERELVAAIRYNGGSTYYADSVKGRFTISRDNAKNTVYLQMNSLKPEDTAVYYCAAGGFHYVYYRGMYYWGQGTQVTVSS | high polyreactivity
5 | QVQLVESGGGLVQAGGSLRLSCAASGSTFTINVMGWYRQAPGKERELVAAINGGGRTNYADSVKGRFTSSRDNAKNTVYLQMNSLKPEDTAVYYCAADGLSNVRQMDYWGQGTQVTVSS | low polyreactivity
6 | QVQLVESGGGLVQAGGSLRLSCAASGFIFHRYVMGWSRQAPGKERELVAAISSGGSTNYADSVKGRFTISRDNAKNTVYLQMNSLKPEDTAVYYCAADGFYYRNWGRFRYYYWGQGTQVTVSS | low polyreactivity
7 | QDQLVESAGGLVQAGGSLRLSCAASARIFRYNAIGCYRQGPGKERVLVASITSAGSTNYADSVKGRFTISRDNAKNTVYLQMNSLKPEDTAVYYCNKRRAYGYYLFDYWGLGTQVTVSS | high polyreactivity
8 | QVQLVESGGGLVQAGGSLRLSCAASGITFRYYAMGWYRQAPGKERELVAVISTSGGSTYYADSVKGRFTISRDNAKNTVYLQMNSLKPEDTAVYYCAARYTYWGLLRYDYWGQGTQVTVSS | high polyreactivity
9 | QVQLVESGGGLVQAGGSLRLSCAASGRTFPYNAMGWYRPAPGKERELVAAISGRGGSTYYADYVKGRFTISRDNAKNTVYLQMNSLKPEDTAVYYCAARLPWSYYRTQGYNYWGQGTQVTVSS | high polyreactivity
10 | QVQLVESGGGLVQAGGSLRLSCAASGRIFYPYAMGWYRQAPGKERELVAAINWSGDRTYYADSVKGRFTISRDNAKNTVYLQMNSLKPEDTAVYYCAAVYFTRSSGRRYDYWGQGTQVTVSS | high polyreactivity
11 | QVQLVESGGGLVQAGGSLRLSCAASGSIFQVYAMGWYSQAPGKERELVAAITKSGVSTYYADSVKGRFTISRDNAKNTVYLQMNSLKPEDTAVYYCAAPRYVRYHRGYGFDYWGQGTQVTVSS | low polyreactivity
12 | QDQLVESGGGLVQAGGSLRLSFAASVSTFTTYAKGWYRQAPGKERELVAAIDWSDGSITYYADSVKGRFTISRDNAKNTVYLQMNSLKPEDTAVYYCAKDNSQYGWGYDYWVQGTQVTVSS | low polyreactivity
13 | QDQHVESGGGLVQAGGSLRLICAASGFIFVTNTMGWYRQAPGTEWELVAAIRWSGGTTYYADSVKGRFTISRDNAMQTVYLQMNSLKPEDTAFYYCAARYGSRSSYLAYYYWGQGTQVTVSS | high polyreactivity
14 | QVQLVESGGGLVQAGGSLRLSCAASGSTFSYNAMGWYRQAPGKERELVAAISGSGGTTYYADSVKGRFTISRDNAKNTVYLQMNSLKPEDTAVYYCAARPFRSWRYDYWGQGTQVTVSS | low polyreactivity
15 | QVQLVESGGGLVQAGGSLRLSCAASGFTFNPYAMGWYRQAPGKERELVAAITSGGSTNYADSVKGRFTISRDNAKNTVYLQMNSLKPEDTAVYYCAADSRGYGDDSWGQGTKVTVSS | low polyreactivity
16 | QVQLVESGGGLVQAGGSLRLSCAASGSTFESNAMGWYRQAPGKERELVAAISRGGNTYYADSVKGRFTISRDNAKNTVYLQMNSLKPEDTAVYYCAADGAGWLDYGYWGQGTQVTVSS | low polyreactivity
17 | QVQLVESGGGLVQAGGSLRLSCAASGFIFRTNAMGWYRQAPGKERELVAAITSSGGTTFYADSVKGRFTISRDNAKNTVYLQMNSLKPEDTAVYYCAAAYKHRTRSWTYGYWGQGTQVTVSS | high polyreactivity
18 | QVQLVESGGGLVQAGGSLRLSCAASGSIFKVNAMGWYRQAPGKERELVAAISGNTDTTYYADSVKGRFTISRDNAKNTVYLQMNSLKPEDTAVYYCAADAYIKYYFRWINMYYWGQGTQVTVSS | high polyreactivity
19 | QVQLVESGGGLVQAGGSLRLSFAASGFTFCIYAMGWYRQAPGKERELVAAINVSEGSTYYADSVKGRFTISRDNAKNTVYLQMNSLKPEDTAVYYCDAYLYDTIYTSYREYDYWGQGTQVTVSS | low polyreactivity
20 | QVQLLESGGGLVQAGGSLRLSCAASGRTFAYNAMAWDRQAPGTERELVADITSGGSTYYADSVKGRFTISRDNAKNTVYLQMNSRKPEDTAVYYCAGYPQFWYWDYNYWGQGTQVTVSS | high polyreactivity
21 | QVQLVESGGGLVQAGGSLRLSCAASGLTFQSYAMGWYRQAPGKEREFAYYADSVKGRFTMSRDNAKNTVYLQMNSLKPEDTAVYYCNGADDEGDRPITQVGYDYWGQGTQVTVSS | low polyreactivity
22 | QVQLVESGGGLVQAGGRLRLSCAASGRIFQYNAMGWYRQAPGKERELVAAITSSGGSTYYADSVKGRFTISRDNAKNTVYLQMNSLKPEDTAVYYCAAKRPQYYVQFGYWGHGTQVTVSS | high polyreactivity

Row | Sequence | polyreactivity (PSR sort gate)
23 | QVQLVESGGGIVQAGGSLRLICAASGRIFPYNVMGWYRQAPGKERELVAAISSGGTTDYADSVKGRFTISRDNAKNTVYLQMNSLKPEDTAVYYCAATYVYWTWGYDYWGQGTQVTVSS | low polyreactivity
24 | QVQLVESGGGLVKAGGSLRLSCAASGFIFTQNAMGWYRQAPGKERELVAAISGTGGSTYYADSVKGRFTISRDNAKNTVYLQMNSLKPEDTAVYYCAARRRQEHVGRSSYARYDYWGQGTQVTVSS | high polyreactivity
25 | QVQLVESGGGLVQAGGSLRLSCAASGSTFGGNAKGWYRQAPGKERELGAAISSSGGSTYYADSVKGRFTLSRDNAKNTVYLQMNSLKPEDTAVYYCAALYHWTYDYWGQGTQVTVSS | low polyreactivity
26 | QVQLVESGGGLVQAGGSLRLSCAASGGTFDNYAMGWYRQAPGKERELVAAISWSGDNTYYADSVKGRFTISRDNAKNTVYLQMNSLKPEDTAVYYCAAVYFWYSYDEGYTAYDYWGQGTQVTVSS | low polyreactivity
27 | QVQLVESGGGLVQAGGSLRLSCAASGSIFYYNDRGWSRQAPGKDRELVATIRSGGNTNYADSVKGRFTISRDIAKNTVYLQMNSLKPEDSAVYYCTARGAYHGYRYDSWGQGTQVTVSS | low polyreactivity
28 | QVQLVESGGGLVQAGGSLRLSCAASGSILQSYAMGWYRQAPGKERELVAAISGSGGSTYYADSVKGRFTISRDNAKNTVYLQMNSLKPEDTAVYYCAKGPLYRTSRGEFGYWGQGTQVTVAS | low polyreactivity
29 | QVQLVESGGGLVQAGGSLRLSCAASGSIFDNAMGWYRQAPGKERELVASIDQSGGSTYYADSVKGRFTISRDNAKNTVYLQMNSLKPEDTAVYYCAADSFTGYPYEMDYWGQGTQVTVSS | low polyreactivity
30 | QVQLVESGGGLVQAGGSLRLSCAASGIIIGGNAMGWYRQARGKERELVAAINSDDSTYYADSVKGRFTISRDNAKNTVYLQMNSLKPEDTAVYYCAVTETYYSPYSGYWYEYDHWGQGTQVTVSS | high polyreactivity
31 | QVQLVESGGGLVQAGGSLRLSCAASGYIFVIYAMGRYRQAPGKERELVAAITDGGDNTYYADSVKGRFTISRDNAKNTVYLHMNSLKPEDTAVYYCAADVYLPIAAWEGSLEYYYWGQGTQVTVSS | high polyreactivity
32 | QVQLVESGGGLVQAGGSLRLSCAASGFTFSGYAMGWYRQAPGKERELVAASTRRTGTTYYADSVKGRFTISRDNAKNTVYLQMNSLKPEDTAVYYCNKGYPSPPAGEYGYWGQGTQVTVSS | high polyreactivity
33 | QVQLVESGGGLVQAGGSLRLSCAASGRIFLVYAMGWYRQAPGKERELVAAISYSGGRTYYADSVKGRFTISRDNAKNTVYLQMNSLKPEDTAVYYCAAKRITYYGGGRFYYWGQGTQVTVSS | high polyreactivity
34 | QVQLVESGGGLVQAGGSLRLSCAASGSIFYGYAMGWYRQAPGKERELVAAISWTGGRTYYADSVKGRFTISRDNAKNTVYLQMNSLKPEDTAVYYCNVRRYSVVSGGYWGQGTQVTVSS | high polyreactivity
35 | QVQLVESGGGLVQAGGSLRLSCAASGFTFIGNAMGWYRQAPGKERELVAAISWRGGSTYYADSVKGRFTISRDNAKNTVYLQMNSLKPEDTAVYYCNKVPRRVSRSERDYWGQGTQVTVSS | high polyreactivity
36 | QVQLVESGGALVQAGGSLRLSCAASGYIFPGNAMGWYRQAPGKEREVVAGITSSGTSTYYADSVKGRFTISRDNAKNTVYLQMNSLKQEDTAVYYCAADALWGTGSGFDYWGQGTQVTVSS | low polyreactivity
37 | QVQLVESGGGLVQAGGSLRLSCAASGGIFLPNAMGWYRQAPGKERELVAAISTGGSTNYADSVKGRFTISRDNAKNTVYLQMNSLKPEDTAVYYCAATPYNYVGFSRGGDYWGQGTQVTVSS | low polyreactivity
38 | QVQLVESGGGLVQAGGSLRLSCAASGFIFYRYAMGWYRQAPGKERELVAVISGSGGRTYYADSVKGRFTISRDNAKNTVYLQMNSLKPEDTAVYYCAAVTRRRYYGHIYGYWGQGTQVTVSS | high polyreactivity
39 | QVQLVESGGGLVQAGGSLRLSCAASGSTFNVNAMGWYRQSPGKERELVAAITSSGGSTNYADSVKGRFTFSRDNAKYTVYLQMNSLNPEDTAFYYCAAYAIYFSRLNLGYDYWGQGTQVTVSS | low polyreactivity
40 | QVQLVESGGGLVQAGGSLRLSCAASGSIFTFNTMGWYRQAPGKERELVATISSGGRTYYADSVKGRFTISRDNAKNTVYLQMNSLKPEDTAVYYCNKGYYGYTYVEYNYWGQGTQVTVSS | low polyreactivity
41 | QVQLVESGRGLVQAGGSLRLSCAASGRIFVHYAMGWYRQAPGKERELVAAITYSGDSTYYADSVKGRFTISRDNAKNTVYLQMNSLKPEDTAVYYCNAVVRRVLFDYDYWGQGTQVTVSS | high polyreactivity
42 | QVQLVESGGGLVQAGGSLRLSCAASGITFWPYAMGWYRQAPGKERELVAAISFIDGSTSYADSVKGRFTISRDNAKNTVYLQMNSLKPEDTAVYYCAAVIPGPSIWLYYYWGQGTQVTVSS | low polyreactivity
43 | QVQLVESGGGLVQAGGSLRLSCAASGSILWLYVMGWYRQAPGKERELVATITSSGGSTYYADSVKGRFTISRDNAKNTVYLQKNSLKPEDTAVYYSAAQTYNSYDYWGQATQVTVSS | low polyreactivity
